In patent US20110172168A1 (MEDIGENE, published 2011):

biological target: T1, CEA-derived … (SEQ ID NO: 71)-HLA-A*0201 complex (biotin on the C-terminal biotinylation tag (enzymatic, BirA)); experiment: Biacore SPR, pMHC immobilised
T1 construct: also called soluble biotinylated HLA-A2-peptide complex; not shown: C-terminal biotinylation tag that replaces the transmembrane and cytoplasmic domains
Procedure: SPR measures changes in refractive index expressed in response units (RU) near a sensor surface within a small flow cell, a principle that can be used to detect receptor ligand interactions and to analyse their affinity and kinetic parameters. The probe flow cells were prepared by immobilising the pMHC complexes in flow cells via biotin-tag binding. The assay was then performed by passing soluble ILT over the surfaces of the different flow cells at a constant flow rate, measuring the SPR response in doing so.

Row | Kd | koff | Binder
1 | ≤ 1000 nM | ≤ 2 s⁻¹ | SEQ ID NO 32 (receptor) MAGHLPKPTLWAEPGSVITQGSPVTLRCQGGQETQEYRLYREKKTAPWITRIPQELVKKGQFPIPSITWEHAGRYRCYYGSDTSQWSASSDPLELVVTGVYIKPTLSAQPSPVVNSGGNVTLQCDSQVAFDGFILCKEGEDEHPQCLNSQPHARGSSRAIFSVGPVSPSRRWWYRCYAYVAWAPYEWSLPSDLLELDVDG
2 | ≤ 1000 nM | ≤ 2 s⁻¹ | SEQ ID NO 30 (receptor) MAGHLPKPTLWAEPGSVITQGSPVTLRCQGGQETQEYRLYREKKTAPWITRIPQELVKKGQFPIPSITWEHAGRYRCYYGSDTSQWSASSDPLELVVTGVYIKPTLSAQPSPVVNSGGNVTLQCDSQVAFDGFILCKEGEDEHPQCLNSQPHARGSSRAIFSVGPVSPSRRWWYRCYAYPIWTPYEWSLPSDLLELDVDG
3 | ≤ 1000 nM | ≤ 2 s⁻¹ | SEQ ID NO 43 (receptor) MAGHLPKPTLWAEPGSVITMDQPVTLRCQGGQETQEYRLYREKKTAPWITRIPQELVKKGQFPIPSITWEHAGRYRCYYGSDTSQWSASSDPLELVVTGVYIKPTLSAQPSPVVNSGGNVTLQCDSQVAFDGFILCKEGEDEHPQCLNSQPHARGSSRAIFSVGPVSPSRRWWYRCYAYMSYSPYEWSLPSDLLELDVDG
4 | ≤ 1000 nM | ≤ 2 s⁻¹ | SEQ ID NO 40 (receptor) MAGHLPKPTLWAEPGSVITQGSPVTLRCQGGQETQEYRLYREKKTAPWITRIPQELVKKGQFPIPSITWEHAGRYRCYYGSDTSQWSASSDPLELVVTGVYIKPTLSAQPSPVVNSGGNVTLQCDSQVAFDGFILCKEGEDEHPQCLNSQPHARGSSRAIFSVGPVSPSRRWWYRCYAYMSWSPYEWSLPSDLLELDVDG
5 | ≤ 1000 nM | ≤ 2 s⁻¹ | SEQ ID NO 36 (receptor) MAGHLPKPTLWAEPGSVITQGSPVTLRCQGGQETQEYRLYREKKTAPWITRIPQELVKKGQFPIPSITWEHAGRYRCYYGSDTSQWSASSDPLELVVTGVYIKPTLSAQPSPVVNSGGNVTLQCDSQVAFDGFILCKEGEDEHPQCLNSQPHARGSSRAIFSVGPVSPSRRWWYRCYAYPAWTPYEWSLPSDLLELDVDG
6 | ≤ 1000 nM | ≤ 2 s⁻¹ | SEQ ID NO 34 (receptor) MAGHLPKPTLWAEPGSVITQGSPVTLRCQGGQETQEYRLYREKKTAPWITRIPQELVKKGQFPIPSITWEHAGRYRCYYGSDTSQWSASSDPLELVVTGVYIKPTLSAQPSPVVNSGGNVTLQCDSQVAFDGFILCKEGEDEHPQCLNSQPHARGSSRAIFSVGPVSPSRRWWYRCYAYMNWAPYEWSLPSDLLELDVDG
7 | ≤ 1000 nM | ≤ 2 s⁻¹ | SEQ ID NO 38 (receptor) MAGHLPKPTLWAEPGSVITQGSPVTLRCQGGQETQEYRLYREKKTAPWITRIPQELVKKGQFPIPSITWEHAGRYRCYYGSDTSQWSASSDPLELVVTGVYIKPTLSAQPSPVVNSGGNVTLQCDSQVAFDGFILCKEGEDEHPQCLNSQPHARGSSRAIFSVGPVSPSRRWWYRCYAYMSWAPYEWSLPSDLLELDVDG

Continued, binder first:

Row | Binder | Kd | koff
8 | SEQ ID NO 7 (receptor) MAGHLPKPTLWAEPGSVITMDQPVTLRCQGGQETQEYRLYREKKTAPWITRIPQELVKKGQFPIPSITWEHAGRYRCYYGSDTSQWSASSDPLELVVTGVYIKPTLSAQPSPVVNSGGNVTLQCDSQVAFDGFILCKEGEDEHPQCLNSQPHARGSSRAIFSVGPVSPSRRWWYRCYAYPIWTPYEWSLPSDLLELDVDG | ≤ 1000 nM | ≤ 2 s⁻¹
9 | SEQ ID NO 16 (receptor) MAQHLPKPTLWAEPGSVITMDQPVTLRCQGGQETQEYRLYREKKTAPWITRIPQELVKKGQFPIPSITWEHAGRYRCYYGSDTSQWSASSDPLELVVTGVYIKPTLSAQPSPVVNSGGNVTLQCDSQVTFDGFILCKEGEDEHPQCLNSQPHARGSSRAIFSVGPVSPSRRWWYRCYAYDSNSPYEWSLPSDLLELDVDG | ≤ 1000 nM | ≤ 2 s⁻¹
10 | SEQ ID NO 20 (receptor) MAGHLPKPTLWAEPGSVITMDQPVTLRCQGGQETQEYRLYREKKTAPWITRIPQELVKKGQFPIPSITWEHAGRYRCYYGSDTSQWSASSDPLELVVTGVYIKPTLSAQPSPVVNSGGNVTLQCDSQVAFDGFILCKEGEDEHPQCLNSQPHARGSSRAIFSVGPVSPSRRWWYRCYAYPDFTPYEWSLPSDLLELDVDG | ≤ 1000 nM | ≤ 2 s⁻¹
11 | SEQ ID NO 23 (receptor) MAGHLPKPTLWAEPGSVITMDQPVTLRCQGGQETQEYRLYREKKTAPWITRIPQELVKKGQFPIPSITWEHAGRYRCYYGSDTSQWSASSDPLELVVTGVYIKPTLSAQPSPVVNSGGNVTLQCDSQVAFDGFILCKEGEDEHPQCLNSQPHARGSSRAIFSVGPVSPSRRWWYRCYAYVEWLPYEWSLPSDLLELDVDG | ≤ 1000 nM | ≤ 2 s⁻¹
12 | SEQ ID NO 14 (receptor) MAQHLPKPTLWAEPGSVITMDQPVTLRCQGGQETQEYRLYREKKTAPWITRIPQELVKKGQFPIPSITWEHAGRYRCYYGSDTSQWSASSDPLELVVTGVYIKPTLSAQPSPVVNSGGNVTLQCDSQVDFDGFILCKEGEDEHPQCLNSQPHARGSSRAIFSVGPVSPSRRWWYRCYAYDSNSPYEWSLPSDLLELDVDG | ≤ 1000 nM | ≤ 2 s⁻¹
13 | SEQ ID NO 10 (receptor) MAGHLPKPTLWAEPGSVITMDQPVTLRCQGGQETQEYRLYREKKTAPWITRIPQELVKKGQFPIPSITWEHAGRYRCYYGSDTSQWSASSDPLELVVTGVYIKPTLSAQPSPVVNSGGNVTLQCDSQVAFDGFILCKEGEDEHPQCLNSQPHARGSSRAIFSVGPVSPSRRWWYRCYAYTDYSPYEWSLPSDLLELDVDG | ≤ 1000 nM | ≤ 2 s⁻¹
14 | SEQ ID NO 15 (receptor) MAQHLPKPTLWAEPGSVITMDQPVTLRCQGGQETQEYRLYREKKTAPWITRIPQELVKKGQFPIPSITWEHAGRYRCYYGSDTSQWSASSDPLELVVTGVYIKPTLSAQPSPVVNSGGNVTLQCDSQVSFDGFILCKEGEDEHPQCLNSQPHARGSSRAIFSVGPVSPSRRWWYRCYAYDSNSPYEWSLPSDLLELDVDG | ≤ 1000 nM | ≤ 2 s⁻¹
15 | SEQ ID NO 13 (receptor) MAGHLPKPTLWAEPGSVITMDQPVTLRCQGGQETQEYRLYREKKTAPWITRIPQELVKKGQFPIPSITWEHAGRYRCYYGSDTSQWSASSDPLELVVTGVYIKPTLSAQPSPVVNSGGNVTLQCDSQVAFDGFILCKEGEDEHPQCLNSQPHARGSSRAIFSVGPVSPSRRWWYRCYAYPAWTPYEWSLPSDLLELDVDG | ≤ 1000 nM | ≤ 2 s⁻¹
16 | SEQ ID NO 9 (receptor) MAGHLPKPTLWAEPGSVITMDQPVTLRCQGGQETQEYRLYREKKTAPWITRIPQELVKKGQFPIPSITWEHAGRYRCYYGSDTSQWSASSDPLELVVTGVYIKPTLSAQPSPVVNSGGNVTLQCDSQVAFDGFILCKEGEDEHPQCLNSQPHARGSSRAIFSVGPVSPSRRWWYRCYAYMNWAPYEWSLPSDLLELDVDG | ≤ 1000 nM | ≤ 2 s⁻¹
17 | SEQ ID NO 8 (receptor) MAGHLPKPTLWAEPGSVITMDQPVTLRCQGGQETQEYRLYREKKTAPWITRIPQELVKKGQFPIPSITWEHAGRYRCYYGSDTSQWSASSDPLELVVTGVYIKPTLSAQPSPVVNSGGNVTLQCDSQVAFDGFILCKEGEDEHPQCLNSQPHARGSSRAIFSVGPVSPSRRWWYRCYAYVAWAPYEWSLPSDLLELDVDG | ≤ 1000 nM | ≤ 2 s⁻¹
18 | SEQ ID NO 11 (receptor) MAGHLPKPTLWAEPGSVITMDQPVTLRCQGGQETQEYRLYREKKTAPWITRIPQELVKKGQFPIPSITWEHAGRYRCYYGSDTSQWSASSDPLELVVTGVYIKPTLSAQPSPVVNSGGNVTLQCDSQVAFDGFILCKEGEDEHPQCLNSQPHARGSSRAIFSVGPVSPSRRWWYRCYAYVDWFPYEWSLPSDLLELDVDG | ≤ 1000 nM | ≤ 2 s⁻¹
19 | SEQ ID NO 21 (receptor) MAGHLPKPTLWAEPGSVITMDQPVTLRCQGGQETQEYRLYREKKTAPWITRIPQELVKKGQFPIPSITWEHAGRYRCYYGSDTSQWSASSDPLELVVTGVYIKPTLSAQPSPVVNSGGNVTLQCDSQVAFDGFILCKEGEDEHPQCLNSQPHARGSSRAIFSVGPVSPSRRWWYRCYAYPWFTPYEWSLPSDLLELDVDG | ≤ 1000 nM | ≤ 2 s⁻¹
20 | SEQ ID NO 12 (receptor) MAGHLPKPTLWAEPGSVITMDQPVTLRCQGGQETQEYRLYREKKTAPWITRIPQELVKKGQFPIPSITWEHAGRYRCYYGSDTSQWSASSDPLELVVTGVYIKPTLSAQPSPVVNSGGNVTLQCDSQVAFDGFILCKEGEDEHPQCLNSQPHARGSSRAIFSVGPVSPSRRWWYRCYAYVSYWPYEWSLPSDLLELDVDG | ≤ 1000 nM | ≤ 2 s⁻¹
21 | SEQ ID NO 17 (receptor) MAQHLPKPTLWAEPGSVITMDQPVTLRCQGGQETQEYRLYREKKTAPWITRIPQELVKKGQFPIPSITWEHAGRYRCYYGSDTSQWSASSDPLELVVTGVYIKPTLSAQPSPVVNSGGNVTLQCDSQVAYDGFILCKEGEDEHPQCLNSQPHARGSSRAIFSVGPVSPSRRWWYRCYAYDSNSPYEWSLPSDLLELDVDG | ≤ 1000 nM | ≤ 2 s⁻¹
22 | SEQ ID NO 18 (receptor) MAGHLPKPTLWAEPGSVITMDQPVTLRCQGGQETQEYRLYREKKTAPWITRIPQELVKKGQFPIPSITWEHAGRYRCYYGSDTSQWSASSDPLELVVTGVYIKPTLSAQPSPVVNSGGNVTLQCDSQVAFDGFILCKEGEDEHPQCLNSQPHARGSSRAIFSVGPVSPSRRWWYRCYAYMSWAPYEWSLPSDLLELDVDG | ≤ 1000 nM | ≤ 2 s⁻¹
